Data published in the supplement of paper PMC12855868.

B1: library; numbered along this chain (parent)
chain: MAAAGGARLLRAASAVLGGPAGRWLHHAGSRAGSSGLLRNRGPGGSAEASRSLSVSARARSSSEDKITVHFINRDGETLTTKGKVGDSLLDVVVENNLDIDGFGACEGTLACSTCHLIFEDHIYEKLDAITDEENDMLDLAYGLTDRSRLGCQICLTKSMDNMTVRVPETVADARQSIDVGKTS

Variants of: B1
Experiment: scaled log2 fold change in cell abundance, elesclomol vs control (0 = silent mean, 1 = nonsense mean) (scaled log2 ratio); higher = higher viability under elesclomol (loss of FDX1 cuproptosis function)
Details: glucose 10 mM
[1] = with ABC1 FDX1 KO, elesclomol 5 nM, 14 days
[2] = with HEK293T FDX1 KO, elesclomol 40 nM, 11 days
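Also: variant abundance is its share of total variant reads in each endpoint sample, from next-generation sequencing of the integrated ORF PCR-amplified out of genomic DNA.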

Variant | scaled log2 fold change [1] | scaled log2 fold change [2]
S177K | 0.281 | -0.228
S177T | -0.0709 | -0.492
S177W | 0.0273 | 0.264
S177F | -0.0241 | -0.0862
S177I | -0.08 | 0.665
S177G | -0.315 | 0.0748
S177R | -0.0538 | -0.798
S177V | -0.287 | 0.49
S177Y | -1.05 | 0.126
S177E | -0.0815 | -0.019
S177A | -0.0907 | –
S177M | -0.566 | 0.0434
S177Q | 0.143 | -0.314
S177C | -0.309 | –
S177H | 0.139 | -0.562
S177N | 0.00267 | 0.0839
S177P | -0.213 | -0.486
S177D | -1.44 | -0.675
S177L | -0.34 | -0.529
I178P | -0.0627 | 0.399

Variant | scaled log2 fold change [1] | scaled log2 fold change [2]
I178G | -0.381 | –
I178E | 0.2 | -0.114
I178N | 0.142 | 0.216
I178M | -0.147 | 0.0752
I178C | 0.576 | -0.695
I178T | 0.00283 | -0.626
I178D | 0.156 | 1.21
I178R | 0.265 | -0.46
I178A | -0.325 | 0.476
I178Y | -1.49 | 0.141
I178L | 0.552 | -0.187
I178V | -0.343 | 0.0591
I178Q | -0.0255 | 0.28
I178K | 0.421 | 1.24
I178W | 0.246 | -0.636
I178S | 0.197 | 0.0683
I178F | -0.214 | 0.801
I178H | -0.366 | 0.244
V180R | -0.02 | -0.285
V180G | 0.144 | -0.341

Variant | scaled log2 fold change [1] | scaled log2 fold change [2]
V180T | 0.143 | -0.33
V180M | 0.313 | 0.491
V180Q | 0.0492 | -0.00162
V180S | -0.754 | -1.45
V180A | -0.00321 | 2.72
V180I | 0.213 | –
V180L | -0.0572 | -0.104
V180K | -0.341 | 0.164
V180H | -0.37 | 1.19
V180N | 0.00503 | -0.0838
V180C | 0.235 | 0.216
V180D | 0.293 | –
V180F | 0.0635 | 0.0689
V180E | -0.352 | -0.141
V180P | -1.19 | 0.824
D179W | 0.235 | –
D179C | 0.369 | -0.227
D179H | 0.224 | –
D179P | -0.26 | 0.0267
D179Q | 0.442 | -0.984
